Source: patent US20230295310A1 (ABCELLERA BIOLOGICS, published 2023)
Where a chain is given by its changes, count along the chain named. Blank lines part the entries; values can stand above or below the binder they belong to.

Key:
[1] = molecular target: T1, human CD3e/d (human, UniProt P07766 23-126; P04234 22-105); test: SPR (Carterra LSA), mAb on chip
T1 construct: Bought soluble protein; also called hCD3e/d; human CD3/ed (Sino CT038-H2508H)
Summary of the method: (§1)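 Purified mAbs amine-coupled (EDC/S-NHS) at 10 μg/mL in 10 mM NaOAc pH 4.25 onto an HC-30M chip, with benchmark and negative-control mAbs; analyte flowed over the array. Double-referenced sensorgrams fitted globally to a 1:1 Langmuir model for ka, kd and KD.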

[2] = molecular target: T2, human CD3e/g (human, UniProt P07766 23-126; P09693 23-116); test: SPR (Carterra LSA), mAb on chip
T2 construct: Bought soluble protein; also called hCD3e/g; human CD3e/g (Acro CDD-C52W4)
T2 sequence (P07766 23-126, chain 1 of 2): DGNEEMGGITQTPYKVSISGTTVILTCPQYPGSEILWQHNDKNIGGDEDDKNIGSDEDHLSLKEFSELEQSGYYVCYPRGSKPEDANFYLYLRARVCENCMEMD
T2 sequence (P09693 23-116, chain 2 of 2): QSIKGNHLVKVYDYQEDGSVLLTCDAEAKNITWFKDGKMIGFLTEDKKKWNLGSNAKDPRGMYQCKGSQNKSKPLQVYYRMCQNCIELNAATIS
Summary of the method: as §1

T1 sequence (P07766 23-126, chain 1 of 2): as the sequence (P07766 23-126, chain 1 of 2) above
T1 sequence (P04234 22-105, chain 2 of 2): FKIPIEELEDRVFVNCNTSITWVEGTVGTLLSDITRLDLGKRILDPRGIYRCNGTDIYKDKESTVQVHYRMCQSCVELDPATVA

B1: mAb 188 (antibody, V domains shown)
VH: QVQLVESGGGVVQPGRSLRLSCAASGFTFSGYGMHWVRQAPGKGLEWVAIIYYNGKKEYYADSVKGRFTISRDNSKNTLYLQMNSLRAEDTAVYYCTRGEGYNWFDPWGQGTLVTVSS
VL: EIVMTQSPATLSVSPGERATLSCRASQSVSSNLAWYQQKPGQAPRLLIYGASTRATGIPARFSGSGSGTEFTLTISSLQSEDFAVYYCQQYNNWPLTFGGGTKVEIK
notes: VH and VL only
Kd [1]: 36 nM
Kd [2]: 17 nM

B4: mAb 189 (antibody, V domains shown)
VH: B1 VH with N54D, K57N, E58K, N77S, R87G, E89D, E100K
VL: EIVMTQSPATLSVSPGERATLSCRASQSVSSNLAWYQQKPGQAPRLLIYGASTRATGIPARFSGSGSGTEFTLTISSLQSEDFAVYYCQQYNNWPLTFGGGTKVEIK
notes: VH and VL only
Kd [1]: 110 nM
Kd [2]: 60 nM

B10: mAb 52 (antibody, V domains shown)
VH: QVQLVQSGAEVKKPGASVKVSCKASGYTFTSHDINWVRQATGQGLEWMGWLNPNSGKTGYAQKFQGRVTMARDTSMYTADMELSSLRFEDTAVYYCARVGHYDMWPGFFSFDYWGQGTLVTVSS
VL: DIQMTQSPSSLSASVGDRIIITCRASQDIRNDLGWYQQKPGKAPKRLIYAASSLQSGVPSRFSGSRSGTEFTLTISSLHPEDFATYYCLQHRSYPYTFGQGTNLEIK
notes: VH and VL only
Kd [1]: 17.1 nM
Kd [2]: 112 nM

B11: mAb 141 (antibody, V domains shown)
VH: QVQLVQSGAEVKKPGASVKVSCKASGYTFTSYYIHWVRQAPGQGLDWMGIINPSGGITGYAQKLQGRVTMTRDTSTTTVYMELSSLRSDDTAVYYCARGVRGNYYYYYMDVWGKGTTVTVSS
VL: EIVLTQSPDFQSVTPKEKVTITCRASQSIGSKLHWYQQKPDQSPKLLIKYASQSFSGVPSRFSGSGSGTDFNLTINSLEAEDAATFYCHQSSGLPYTFGQGTKLEIK
notes: VH and VL only
Kd [1]: 92.1 nM
Kd [2]: 26 nM

B12: mAb 145 (antibody, V domains shown)
VH: B11 VH with S31N, L64F
VL: B11 VL with Y50F, A80P
notes: VH and VL only
Kd [1]: 61 nM
Kd [2]: 13.1 nM

B13: mAb 137 (antibody, V domains shown)
VH: QVQLVESGGGVVQPGRSLRLSCAASGFTFSTYGMHWVRQAPGKGLEWVAVIWYDGSHKYYADSVKGRFTISRDNSKKTLYLQMNSLRAEDTGIYYCARTGISGNMSYFYFDHWGQGILVTVSS
VL: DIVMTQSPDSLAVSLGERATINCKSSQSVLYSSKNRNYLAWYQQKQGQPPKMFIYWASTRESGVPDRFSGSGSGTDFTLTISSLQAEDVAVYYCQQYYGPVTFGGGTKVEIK
notes: VH and VL only
Kd [1]: 181 nM
Kd [2]: 950 nM

The next lines start with the values.

Kd [1]: 28 nM
Kd [2]: 15 nM
B2: mAb 191 (antibody, V domains shown)
VH: B1 VH
VL: EIVMTQSPATLSVSPGERATLSCRASQSVSSNLAWYQQKPGQAPRLLIYGASTRATGIPARFSGSGSGTDFTLTISSLQSEHFAVYYCQQYTNWPLTFGGGTKVEIK
notes: VH and VL only

Kd [1]: 17 nM
Kd [2]: 9.5 nM
B3: mAb 203 (antibody, V domains shown)
VH: B1 VH with R16G, S30R, K56R, E58T, D62E, Y80S, A88V, R98A, E100Q
VL: B2 VL with D70E, H82D, Y91F, T92N, N93A, V104M
notes: VH and VL only

Kd [1]: 41 nM
Kd [2]: 30 nM
B5: mAb 198 (antibody, V domains shown)
VH: B1 VH with R16G, Y52W, K56R, E58T, D62E, Y80S, A88I, R98T, E100Q
VL: B2 VL with D70E, H82D, Y91F, T92N, N93A, V104M
notes: VH and VL only

Kd [1]: 28 nM
Kd [2]: 13 nM
B6: mAb 201 (antibody, V domains shown)
VH: B1 VH
VL: B2 VL with N32S, D70E, H82D, T92N
notes: VH and VL only

Kd [1]: 26 nM
Kd [2]: 29 nM
B7: mAb 199 (antibody, V domains shown)
VH: B1 VH with S71F, Q82H
VL: B2 VL with S31R, D70E, H82D, T92N
notes: VH and VL only

Kd [1]: 9.2 nM
Kd [2]: 9.3 nM
B8: mAb 192 (antibody, V domains shown)
VH: B1 VH with T112I
VL: B2 VL with D70E, H82D, Q89K, T92K
notes: VH and VL only

Kd [1]: 49 nM
Kd [2]: 17 nM
B9: mAb 197 (antibody, V domains shown)
VH: B1 VH with R16G, Y52W, K56R, E58T, D62E, Y80S, A88V, R98T, E100Q
VL: B2 VL with D70E, H82D, Y91F, T92N, N93A, V104M
notes: VH and VL only
